Assay results reported in patent US20250019465A1, “COMPOSITIONS AND METHODS FOR RARE HEPARAN SULFATE GLYCAN-TARGETED CANCER TREATMENT” (THE BOARD OF REGENTS OF THE UNIVERSITY OF TEXAS SYSTEM, priority 2021, published 2025).

Key:
DC-HIL-Fc = DC-HIL-Fc binding to HS oligosaccharide microarray; conditions: DC-HIL-Fc 10 mg/ml, visualized by Cy-3, FIG. 1B
Protocol: Various HS oligosaccharides (4-8-mers of HS disaccharide) were imprinted on microarray (Gycan Therapeutics Inc). These glycans were chosen based on sulfation patterns in mammalian cells (FIG. 1A). DC-HIL-Fc (10 mg/ml) was applied and then hybridized to the microaway and visualized by Cy-3 (mean±SD, n=6). […] SVEC mouse endothelial cells or activated T-cells were then incubated with DC-HIL-Fc (10 mg/ml) plus indicated oligoglycans, and DC-HIL binding was fluorescently stained with anti-Fc Ab and FACS analysis. FIG. 1C provides histograms showing binding of Fc control (blue) or DC-HIL-Fc (red), respectively.

[1] = test system: DC-HIL-induced angiogenesis; assay: Matrigel plug assay of DC-HIL-induced angiogenesis; type: in vivo, mice; conditions: DC-HIL-Fc 200 nM with 10× molecular excess of glycan in matrigel, s.c., 2 weeks
Protocol: In order to test the role rHS (Glycan #12) plays in controlling angiogenesis, DC-HIL-Fc (DCH) or Fc (200 nM) was mixed with 10× molecular excess of Glycan #3 or Glycan #12 (See FIG. 1A) and added to matrigel, and implanted s.c. into mice; 2 weeks later, plugs were excised and observed for blood vessels under microscope. Representative photos are shown (FIG. 9A). Plugs were quantified for Hb content (FIG. 9B). Red-dashed line indicates Hb level in Fc-control plug. Data are shown average±SD, n=4.

B16 melanoma cells [2] = assay: B16 melanoma s.c. tumor, intra-tumoral glycan injection; type: in vivo, B6 mice
Protocol: (§1) B16 melanoma cells (5×10^5 cells/mouse) were implanted s.c. into B6 mice (n=4); on day 6, 1 mg of Glycan #3 (G3) or Glycan #12 (G12, see FIG. 1A) was injected intra-tumorally 5 times every 2 days. Tumor volume was measured (FIG. 10A). On day 17, tumors (photos of 2 representatives) were excised. […] Similar experiments were performed with RenCa kidney cancer in BALB/c mice and data are shown in FIG. 10C (tumor volume) and 10D (expression of angiogenic factors). Data shown is representative of 2 experiments. *p<0.0001.

RenCa kidney cancer = RenCa kidney cancer tumor, intra-tumoral glycan injection; type: in vivo, BALB/c mice
Protocol: as §1

[3] = ELISA: DC-HIL-Fc binding to Glycan #12-coated wells with increasing dose of 1A7 SdAb; conditions: DC-HIL-Fc 1 mg/ml, increasing dose of 1A7 SdAb, FIG. 3D
Protocol: SdAbs were obtained as described in Example 2. All SdAb clones were purified from DNA-transfected CHO cells. […] Biotinylated Glycan #12 (0.5 mg/ml) was immobilized to ELISA wells precoated with streptavidin (1 mg/ml) and incubated with increasing doses of 1A7 SdAb (FIG. 3A), FGF2 (negative control, FIG. 3B) and VEGF (positive control, FIG. 3C). After incubating for 1 h, wells were washed and binding measured by anti-c-myc Ab (OD450); SdAb has the C-terminal c-myc tag. In FIG. 3D, DC-HIL-Fc (1 mg/ml) was incubated with Glycan #12-coated wells, with increasing dose of 1A7 SdAb. % inhibition is shown. […] In FIG. 3E: FGF2 or VEGF (0.25 or 0.5 mg/ml) was added to Glycan #12-wells with 0.5 mg/ml of 1A7 or control SdAb (Ctrl), which is specific for KLH. % inhibition is shown. To examine the expression of the 1A7 epitope, immortalized murine […] cells (SVEC) were treated with 50 mM Sodium Cholate (red histogram) or untreated (Blue). Next day, cells were analyzed by FACS for expression of 1A7 epitope (FIG. 3F). […] FIG. 3H summarizes all data from experiments of binding/inhibition and expression analysis on different tumor lines. “Block DC-HIL (or VEGF or FGF2)” means blocking of binding to Glycan #12.

[4] = HS glycan microarray analysis of 1A7 SdAb (53 glycan compounds); type: binding; conditions: 1A7 SdAb 10 μg, anti-c-myc label, FIG. 4
Protocol: 1A7 SdAb (10 μg) was hybridized with HS glycan microarray consisting of 53 glycan compounds (Glycan Therapeutics Inc) and fluorescently labeled with anti-c-myc. Hybridized arrays were analyzed for fluorescence intensity (U); average±sd, n=100). SdAb has the C-terminal c-myc tag.

B16 melanoma cells [5] = assay: B16 melanoma s.c. tumor growth, i.p. 1A7 or KLH Ab; type: in vivo, mice; conditions: 10 mg/mouse i.p. every 2 days 5× from day 6, vs KLH Ab
Protocol: (§2) On day 6 after implantation s.c. of B16 melanoma cells (2×10^5 cells/mouse), mice were treated i.p. with 1A7 or KLH Ab (10 mg/mouse, every 2 days, 5×, shown by reverse arrows). In separate experiments, tumor free mice were injected intravenously (i.v) with 1A7 or KLH (10 mg/mouse) either one day before (d-1) or one day after (d1) intravenous (i.v) injection with B16 or LL2 cells (2×10^5 cells/mouse, n=5). On day 12 (for mice injected with B16 cells) or day 18 (for mice injected with LL2 cells), the number of GFP+ cells in 5×10^5 lung cells was determined via FACS. FIG. 11C-11E summarize numbers of positive cells in each condition.

B16 cells = assay: Experimental lung metastasis after i.v. injection of B16 cells; type: in vivo, mice
Protocol: as §2
1A7 SdAb was compared to other standard treatments (e.g., anti-PDL1 antibody, anti-VEGFR2 antibodies) for its ability to inhibit metastasis using the B16 cell model. Mice (n=5) were injected i.v. with KLH, 1A7 SdAb (10 mg/mouse), anti-DC-HIL (DCH), anti-PDL1 (PL1), anti-VEGFR2 (VER) or combined PL1/VER (PL/VE) mAb ([…]). Next day, mice were given i.v. injection of 2×10^5 B16 cells/mouse. Note: Ab injection was a one-time treatment. On Day 14, lung was enumerated by FACS for GFP^+ cells (FIG. 12A) and the number in 5×10^5 lung cells (average±sd, n=5) are summarized (FIG. 12B). *p<0.0001; **p=0.007. Data are representative of 2 separate experiments. […]

LL2 cells = assay: Experimental lung metastasis after i.v. injection of LL2 cells; type: in vivo, mice; conditions: day 18, vs KLH
Protocol: as §2

Pan-T cells = assay: Anti-CD3-induced Pan-T cell proliferation (3H-thymidine) on wells coated with 1A7; type: cell-based, human; conditions: wells pre-coated with 4 mg/well Ab plus increasing doses of anti-CD3 Ab, 2 days, vs KLH control Ab
Protocol: The ability of 1A7 to affect induction of T-cell activation using anti-CD3 antibodies was tested. Pan-T cells isolated from blood sample of a healthy donor were incubated with wells (2×10^5 cells/well) pre-coated with 1A7 or KLH control Ab (4 mg/well) plus increasing doses of anti-CD3 Ab. After incubation for 2 days, ^3H-thymidine was pulsed for 16 h, harvested, and counted for cpm in cells. […] Data are shown average±SD, n=3

[6] = test system: human SK-MEL-28 melanoma cell line; assay: Lung metastasis of human SK-MEL-28 melanoma cells in xenograft NSG mice; type: in vivo; conditions: single i.v. injection 10 mg/mouse one day before SK-MEL-28 i.v., Day 14, vs KLH
Protocol: A final experiment was performed to determine the effect of an anti-rHS antibody on human lung metastasis in a xenograft mouse model. Immuno-deficient NSG mice (n=5) were injected i.v. with KLH or 1A7 SdAb (10 mg/mouse). Next day, mice were given i.v. injection of 2×10^5 human SK-MEL-28 melanoma cell line. Note: Ab injection is just one time. On Day 14, lung was enumerated by FACS for GFP^+ cells (FIG. 16A) and the number in 5×10^5 lung cells (average±sd, n=5) are summarized (FIG. 16B). *p<0.0001. Data are representative of 2 separate experiments. 1A7 single injection decreased human melanoma in lung by 84% (FIGS. 16A and 16B).

LacZ-LL2 cells = assay: Spontaneous lung metastasis from resected s.c. LacZ-LL2 primary tumor; type: in vivo, mice; conditions: Ab injection every 3 days after tumor resection, lungs 2 weeks later
Protocol: Briefly, mice were implanted s.c. with LacZ-LL2 cells, 2 weeks later, tumor was resected surgically. Mice were then treated with Ab injection every 3 days. 2 weeks later, lungs were excised and stained with X-gal (labeled LacZ-LL2 cells in blue) and blue stains were counted. FIG. 17B provides representative images of lung sections stained with X-gal, showing by green or red arrows. The number of tumor cells per field of view (FOV) were counted and plotted in FIG. 17C alongside and average of 5 FOVs. Each dot represents an individual mouse.

B16F10 melanoma cells = assay: B16F10 melanoma s.c. tumor growth and tumor IHC, rHS Ab vs PD1 Ab; type: in vivo, B57BL/6 mice
Protocol: Antitumor activity of rHS Ab to B16 melanoma was examined. Briefly, B16F10 melanoma cells (5×10^5 cells/mouse) were implanted s.c. into B57BL/6 mice (n=5). Six days later, mice were treated with i.p. injection of Ab every 2 days; 1A7 rHS Ab (20 mg/mouse), PD1 ([…]), rHS/PD1 (20 mg and 200 mg, respectively) or control (Ctrl) Ab ([…]). Tumor volume was measured every 2 days (FIG. 20A). On day 15, all mice were euthanized, tumors were excised and IHC-stained with marker Ab (CD4, CD8, CD11b, and CD31) (FIG. 20B). Positive staining is assayed by % positively stained areas in 4.5 mm2 view (mean±sd, n=5). […] Thus, rHS Ab inhibited melanoma growth, reversing immune suppression and tumor angiogenesis.

Molecule: GlcNS6S-GlcA-GlcNS6S-IdoA2S-GlcNS6S-IdoA2S-GlcNS6S-GlcA [Glycan #12]
- binding of DC-HIL-Fc to each glycan as average RFU (DC-HIL-Fc): strongest binding
- DC-HIL-induced angiogenesis (blood vessels, Hb content of plugs) [1]: completely abrogated
- Tumor volume (growth of melanoma) (B16 melanoma cells [2]; B16 s.c. in B6 mice, 1 mg glycan intra-tumorally 5 times every 2 days from day 6): markedly attenuated growth
- tumor expression of angiogenic factors (qRT-PCR relative to GAPDH) (B16 melanoma cells [2]; B16 tumors excised on day 17): inhibited tumor expression of angiogenic factors
- Tumor volume (growth of kidney cancer) (RenCa kidney cancer; RenCa in BALB/c mice, intra-tumoral glycan): markedly attenuated growth
- tumor expression of angiogenic factors (qRT-PCR relative to GAPDH) (RenCa kidney cancer; RenCa tumors): inhibited tumor expression of angiogenic factors

B1: 1A7: single domain antibody clone, single variable heavy chain (VH), SEQ ID NO: 18, specific for rare heparan sulfate glycan (Glycan #12) (protein)
VHH: QVQLLESGGGLVQPGGSLRLSCAASGVKVSTKSMGWVRQAPGKGLEWVSTIARNDGSTYYADSVKGRFTISRDNSKNTLYLQMNSLRAEDTAVYYCARMKKNGGSKRQPHIRSWGQGTLVTVSS
modifications: Synthetic construct - Clone 1A7
- competition with DC-HIL-Fc for binding to Glycan #12 (% inhibition) [3]: compete for a similar binding site
- affinity for Glycan #12 (fluorescence intensity on HS glycan microarray) [4]: robust affinity
- Tumor volume (tumor growth) (B16 melanoma cells [5]): significantly reduced
- lung metastasis: number of GFP+ cells in 5×10^5 lung cells (B16 cells; B16 i.v., single 10 mg/mouse i.v. one day before (d-1), day 12, vs KLH): significantly reduced
- growth of B16 metastasis (GFP+ cells in 5×10^5 lung cells) compared to other treatments (B16 cells; single i.v. 10 mg/mouse one day before B16 i.v., Day 14, comparators anti-PDL1, anti-VEGFR2 200 mg/mouse): inhibited growth of B16 metastasis, more than currently FDA-approved drugs
- lung metastasis: number of GFP+ cells in 5×10^5 lung cells (LL2 cells; single 10 mg/mouse i.v. one day after (d1)): significantly reduced
- lung metastasis: number of GFP+ cells in 5×10^5 lung cells (LL2 cells; single 10 mg/mouse i.v. one day before (d-1)): significantly reduced
- T cell replication (activation), 3H-thymidine cpm (Pan-T cells): significantly less replication
- decrease of human melanoma in lung (GFP+ cells in 5×10^5 lung cells) [6]: 84%
- spontaneous lung metastasis (tumor cells per field of view, X-gal) (LacZ-LL2 cells): significantly reduced
- Tumor volume (melanoma growth) compared with PD1 Ab (B16F10 melanoma cells; 20 mg/mouse i.p. every 2 days from day 6, PD1 200 mg/mouse): better outcomes than PD1 Ab
- tumor density of CD4 T cells (% positively stained areas, IHC) (B16F10 melanoma cells; tumors excised day 15): increased tumor densities
- tumor density of CD8 T cells (% positively stained areas, IHC) (B16F10 melanoma cells; tumors excised day 15): increased tumor densities
- tumor density of CD11b (% positively stained areas, IHC) (B16F10 melanoma cells; tumors excised day 15): decreased densities
- tumor density of microvacuoles (CD31, % positively stained areas, IHC) (B16F10 melanoma cells; tumors excised day 15): decreased densities
